Assay results: article PMC11104609, “Discovery of allosteric regulators with clinical potential to stabilize alpha-L-iduronidase in mucopolysaccharidosis type I” (PLOS ONE, 2024)

Legend:
IDUA [1] = target: T1, IDUA (Homo sapiens, UniProt P35475); assay: Denaturation prevention (isothermal denaturation) assay with SYPRO Orange; type: binding; design: purchased R&D Systems; settings: pH 7.0 and 37 °C, no compound
T1 sequence (P35475 28-653): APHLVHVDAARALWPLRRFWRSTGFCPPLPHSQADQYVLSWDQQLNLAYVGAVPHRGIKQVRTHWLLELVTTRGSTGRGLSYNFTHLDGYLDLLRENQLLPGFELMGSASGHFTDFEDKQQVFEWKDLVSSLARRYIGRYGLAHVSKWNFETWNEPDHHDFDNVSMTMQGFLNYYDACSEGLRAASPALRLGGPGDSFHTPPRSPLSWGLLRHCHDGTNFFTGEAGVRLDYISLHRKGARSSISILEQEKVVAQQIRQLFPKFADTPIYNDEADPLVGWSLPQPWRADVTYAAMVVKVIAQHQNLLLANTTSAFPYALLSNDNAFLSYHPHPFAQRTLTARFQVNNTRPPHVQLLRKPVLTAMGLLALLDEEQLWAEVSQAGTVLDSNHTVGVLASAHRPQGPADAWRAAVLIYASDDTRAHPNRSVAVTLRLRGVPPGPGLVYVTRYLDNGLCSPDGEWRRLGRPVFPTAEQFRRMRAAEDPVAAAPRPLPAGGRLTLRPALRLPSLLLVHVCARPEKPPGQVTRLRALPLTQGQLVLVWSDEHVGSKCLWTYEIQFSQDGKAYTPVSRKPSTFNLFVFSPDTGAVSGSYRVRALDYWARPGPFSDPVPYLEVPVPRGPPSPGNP
Procedure: The capacity of the compounds to stabilize IDUA in neutral pH buffer was assessed using the denaturation prevention assay. Briefly, rhIDUA (obtained from the Institute of Biotechnology and Biomedicine in the UAB, Bellaterra, Spain) was combined to a final concentration of 1 μM with 5X SYPRO Orange and 30 μM of the corresponding compound in a final reaction volume of 25 μL in 100 mM Hepes, 20 mM MgCl2, pH 7 buffer, or 25 mM NaAc, 150 mM NaCl, pH 5.2. Reactions were incubated at 37 °C, and SYPRO Orange fluorescence intensity was monitored at the indicated time points using Glomax® Discover microplate reader (Promega, Madison, WI, USA). Two independent experiments in triplicate at one concentration (30μM) of compound #18 (GT-01803) were performed for denaturation prevention assays.

IDUA [2] = target: T1, IDUA; assay: IDUA enzymatic activity in patient-derived fibroblasts after rhIDUA with or without compound (4-MUI substrate); type: cell-based; design: Institute of Biotechnology and Biomedicine, Autonomous University of Barcelona (UAB), Bellaterra, Spain; settings: rhIDUA 1.25 nM alone
Procedure: Fibroblasts derived from Hurler (GM00798) and Hurler/Scheie patients (GM02845, GM00512, GM01898, GM00963) were purchased from Coriell (Camden, NJ). Fibroblasts were cultured in Dulbecco’s modified Eagle’s medium (DMEM, Gibco) supplemented with 10% inactivated fetal bovine serum (FBS, Gibco) and 1% penicillin-streptomycin (Thermo Fisher Scientific, Waltham, MA, USA) (growth medium) at 37 °C under 5% CO2. The effect of the protein and/or compound in enhancing IDUA enzymatic activity was evaluated as follows: The specified patient-derived fibroblasts were seeded at 4x10^4 cells per well in 12-well cell culture plates in growth medium. Subsequently, cells were incubated with indicated dose of rhIDUA (obtained from the Institute of Biotechnology and Biomedicine in the UAB, Bellaterra, Spain) in the absence or presence of the compound #18 (GT-01803) for the specified incubation times at 50 μM. After incubation, cells were washed with PBS and detached using Trypsin-EDTA solution (Sigma Aldrich, St. Louis, MO, USA) to prepare cell pellets. The pellets were stored at -80 °C until activity assays were performed. IDUA activity in cell lysates was measured using 4-methylumbelliferyl IDUA substrate (4-MUI, Glycosynth Ltd., #44076, Warrington, UK). Briefly, lysates were resuspended in 120 μL of 0.9% NaCl containing 0.01% Triton X-100 lysis buffer to promote membrane disruption. Next, the cell suspension was sonicated and centrifuged to pellet insoluble materials. Then, 25 μL of lysates were mixed with 25 μL of 200 μM 4-MUI substrate solution in 0.4 M sodium formate, pH 3.5, 0.2% Triton X-100 buffer and incubated for 60 mins at 37 °C. The reaction was stopped by adding 200 μL of 0.5 M Glycine/0.3 M NaOH buffer, pH 10. The liberated 4-methylumbelliferone (4-MU) was measured on a Glomax® Discover microplate reader with excitation at 340 nm and emission at 460 nm. Protein quantification was determined using Pierce BCA Protein Assay Kit (Thermo Fisher Scientific, Waltham, MA, USA). Measurements were interpolated in a 4-MU standard curve and normalised by protein quantity.
For Fig 6A, rhIDUA concentrations of 0.187, 0.375 and 1.25 nM were tested in GM02845 fibroblasts over a 96-hour period, both in the presence and absence of the compound #18 (GT-01803) at 50 μM. In Fig 6B, 1.25 nM of rhIDUA was evaluated in GM02845, GM00798, GM00512, and GM00963 fibroblasts for 96h, with and without the compound #18 (GT-01803) at 50 μM. In Fig 6C, a concentration of 1.25 nM of the protein was applied to fibroblasts for 4, 8, 24 and 96h, with and without the compound #18 (GT-01803) at 50 μM.

B1: rhIDUA: recombinant human alpha-L-iduronidase, enzyme replacement therapy protein (protein, UniProt P35475 28-653, looked up)
Alpha-L-iduronidase: T1 sequence (P35475 28-653)
- stability of rhIDUA at physiological conditions (IDUA [1]): unstable
- mean IDUA cell activity at 96h (IDUA [2]; GM02845 fibroblasts (Fig 6C)): 75.63 nmol/h/mg
- mean IDUA cell activity (IDUA [2]; GM02845 fibroblasts, 96 h (Fig 6A)): 53.37 nmol/h/mg
